Data set [1] deals with T1, TsRTA (Microascus stellatus, UniProt Z9EHZ8S8K6).
T1 construct: codon-optimised synthetic gene in pCH93b (pET22b(+)-derived, TEV site added), E. coli BL21 STAR (DE3), Ni-IMAC, C-terminal His-tag; structure residues 1-319 seen, 320-334 plus tag disordered
T1 sequence (Z9EHZ8S8K6 10-343): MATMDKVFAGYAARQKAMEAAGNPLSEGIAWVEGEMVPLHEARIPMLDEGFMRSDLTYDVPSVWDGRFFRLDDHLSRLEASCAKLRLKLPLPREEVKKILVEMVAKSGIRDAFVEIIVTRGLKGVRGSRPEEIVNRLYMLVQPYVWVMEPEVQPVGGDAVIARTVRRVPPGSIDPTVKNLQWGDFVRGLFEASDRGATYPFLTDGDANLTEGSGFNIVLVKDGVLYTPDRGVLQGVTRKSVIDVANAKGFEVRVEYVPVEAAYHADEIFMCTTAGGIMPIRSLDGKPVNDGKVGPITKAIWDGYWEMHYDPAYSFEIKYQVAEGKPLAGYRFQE
Put plainly: X-ray structure, […] Å. It counts as binding. The following applies: covalent (imine with K178); active site.

Data set [2] concerns the target T1, TsRTA. Put plainly: acetophenone formation, plate reader; substrate-inhibition fit. The format is biochemical. The following applies: 30 °C, pH 8. The source says:
(§1) acetophenone formation, plate reader; substrate-inhibition fit on TsRTA

Data set [3] deals with T2, AtRTA (Aspergillus terreus, UniProt Q0C8G1).
T2 construct: gene ATEG_10023; synthetic gene (Johnson Matthey) in pCH93b (pET22b(+)-derived, TEV site added), E. coli BL21 STAR (DE3), Ni-IMAC
The description is as above. The format is biochemical. The following applies: 30 °C, pH 8. From the text: (§2) acetophenone formation, plate reader; substrate-inhibition fit on AtRTA

For data set [4], the target named is T3, TsRTA (Microascus stellatus, UniProt Z9EHZ8S8K6, G205C).
T3 construct: codon-optimised synthetic gene in pCH93b (pET22b(+)-derived, TEV site added), E. coli BL21 STAR (DE3), Ni-IMAC, C-terminal His-tag; structure residues 1-319 seen, 320-334 plus tag disordered
T3 sequence (Z9EHZ8S8K6 10-343 G205C): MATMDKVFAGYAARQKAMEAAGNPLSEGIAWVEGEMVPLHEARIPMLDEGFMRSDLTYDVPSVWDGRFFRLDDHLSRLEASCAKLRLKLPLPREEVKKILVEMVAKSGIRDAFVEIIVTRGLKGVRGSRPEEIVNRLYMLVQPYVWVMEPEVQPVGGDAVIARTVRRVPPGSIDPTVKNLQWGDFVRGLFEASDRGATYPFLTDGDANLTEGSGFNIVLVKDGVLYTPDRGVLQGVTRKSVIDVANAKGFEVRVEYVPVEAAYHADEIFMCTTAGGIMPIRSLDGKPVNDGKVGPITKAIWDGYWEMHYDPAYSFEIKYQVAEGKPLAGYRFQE
Described as above. It counts as biochemical. The note with it: 10 mM pyruvate, 1% DMSO, 30 °C, pH 8.
From the text: as §1

The target of data set [5] is (R)-selective transaminase from Thermomyces stellatus (TsRTA), wild type (Thermomyces stellatus). Description: SEC; Superdex 200 10/300 GL; 50 mM potassium phosphate, 100 mM NaCl, 0.1 mM PLP, pH 8; ca 2 mg/mL protein; injected directly after preparation or after incubation (ambient temperature; or 10 mM β-mercaptoethanol at 4°C for 2 days, dialysis, overnight aeration); shares of tetramer, dimer and monomer; 0-1,200 mM NaCl had no effect on the tetramer.

The test system of data set [6] is C[C@@H](N)c1ccccc1. Put plainly: acetophenone formation, plate reader; substrate-inhibition fit. The format is biochemical, Aspergillus terreus. The note with it: 10 mM pyruvate, 1% DMSO, 30 °C, pH 8.
From the text: as §2

Data set [7] deals with CC(=O)C(=O)O. The data set is described as above. The note with it: 2.5 mM RMBA, 0.25% DMSO, 30 °C, pH 8. The format is biochemical, Aspergillus terreus.
From the text: as §2

Data set [8] concerns Q0C8G1. The following applies: SEC.
For data set [9], the target named is AtRTA_G207C (Aspergillus terreus) (UniProt Q0C8G1).
The target is the same in data set [10]. Description: SEC.
For data set [11], the system named is CC(=O)C(=O)O. Description: acetophenone formation, plate reader; substrate-inhibition fit. The following applies: 2.5 mM RMBA, 0.25% DMSO, 30 °C, pH 8. It counts as biochemical, Microascus stellatus.
From the text: as §1

Data set [12] has as its system C[C@@H](N)c1ccccc1. The data set is described as above. The format is biochemical, Microascus stellatus. The note with it: 10 mM pyruvate, 1% DMSO, 30 °C, pH 8.
From the text: as §1

Data set [13] concerns CC(=O)C(=O)O. Description: purified protein. The note with it: 2.5 mM RMBA, 0.25% DMSO, 30 °C, pH 8.
Data set [14] relates to C[C@@H](N)c1ccccc1. Put plainly: purified protein. The note with it: 10 mM pyruvate, 1% DMSO, 30 °C, pH 8.
Data set [15] in a line: SEC; Superdex 200 10/300 GL; 50 mM potassium phosphate, 100 mM NaCl, 0.1 mM PLP, pH 8; ca 2 mg/mL protein; injected directly after preparation or after incubation (ambient temperature; or 10 mM β-mercaptoethanol at 4°C for 2 days, dialysis, overnight aeration); shares of tetramer, dimer and ….
For data set [16], the target named is TsRTA_G205C (Thermomyces stellatus). Put plainly: SEC; Superdex 200 10/300 GL; 50 mM potassium phosphate, 100 mM NaCl, 0.1 mM PLP, pH 8; ca 2 mg/mL protein; injected directly after preparation or after incubation (ambient temperature; or 10 mM β-mercaptoethanol at 4°C for 2 days, dialysis, overnight aeration); shares of tetramer, dimer and monomer; 0-1,200 mM NaCl had no effect on the tetramer.

Data set [17] deals with the molecule itself. The data set is described as above.

On to `Cc1ncc(COP(=O)(O)O)c(C=O)c1O` [PLP], for which, in data set [1], the “X-ray structure, 2.2 Å” value is given as “The active site pocket houses a single PLP molecule, covalently bound to each TsRTA chain”.
On to `CC(=O)C(=O)O` [Pyruvate], for which the “Ki” value in [2] (2.5 mM RMBA, 0.25% DMSO) is 39 ± 5 mM; in [3] (2.5 mM RMBA, 0.25% DMSO), 52 ± 4 mM.
For `C[C@@H](N)c1ccccc1` [RMBA], the inhibition constant (Ki) was found to be 15 ± 1 mM in [2] (10 mM pyruvate, 1% DMSO); 20 ± 2 mM in data set [4]; 19 ± 1 mM in data set [3] (10 mM pyruvate, 1% DMSO).
For “(R)-selective transaminase from Thermomyces stellatus (TsRTA), wild type (enzyme)”, in data set [5], the percent dimer was 10%, the percent tetramer was 90% and the stoichiometry N was 4.
For the molecule AtRTA (Aspergillus terreus NIH2624), in data set [6], the Michaelis constant (Km) was found to be 170 ± 10 µM, the turnover number (kcat) came to 2.24 ± 0.04 s⁻¹ and the kcat/Km worked out at 13300 ± 500 M⁻¹ s⁻¹.
Consider “AtRTA (Aspergillus terreus NIH2624; G207C)”, for which, in data set [7], the Km amounted to 190 ± 10 µM, the kcat is 1.71 ± 0.03 s⁻¹ and the kcat/Km was 9200 ± 500 M⁻¹ s⁻¹. In data set [6], the Michaelis-Menten constant (Km) is 300 ± 20 µM, the turnover number (kcat) came to 1.96 ± 0.05 s⁻¹ and the kcat/Km was found to be 6400 ± 300 M⁻¹ s⁻¹.
For the molecule AtRTA_G207C, in data set [8], the “percent tetramer (sample with a lower proportion of tetramer used for the thermostability assay)” value is “AtRTA_G207C: 55% tetramer”.
In the case of “AtRTA_G207C (from UniProt Q0C8G1 1-325) (enzyme)”, the increase in enzyme activity after β-mercaptoethanol pre-treatment in data set [9] was 65%. In addition, in data set [10], the percent dimer (after β-mercaptoethanol, dialysis and aeration) came to 5%; the percent dimer (immediately following purification) stood at 19%; the percent dimer and tetramer (after β-mercaptoethanol pre-treatment) came to 94%; the percent dimer and tetramer (before β-mercaptoethanol pre-treatment) is 57%. In data set [10], this molecule displayed a percent monomer (after β-mercaptoethanol, dialysis and aeration) of 6%; a percent monomer (immediately following purification) of 52%; a percent tetramer (after β-mercaptoethanol, dialysis and aeration) of 89%; a percent tetramer (immediately following purification) of 28%. Besides, the stoichiometry N in data set [10] is 4.
For TsRTA (Microascus stellatus), in data set [11], the Km worked out at 570 ± 30 µM, the kcat was found to be 2.21 ± 0.04 s⁻¹ and the kcat/Km amounted to 3900 ± 100 M⁻¹ s⁻¹. Moreover, in [12], the Km worked out at 130 ± 10 µM, the kcat worked out at 1.82 ± 0.03 s⁻¹ and the kcat/Km came to 13800 ± 600 M⁻¹ s⁻¹.
As to TsRTA (Microascus stellatus; G205C), in [13], the Km was determined as 420 ± 10 µM, the kcat was 1.33 ± 0.02 s⁻¹ and the kcat/Km is 3200 ± 100 M⁻¹ s⁻¹. Moreover, in data set [14], the Km was 120 ± 10 µM, the turnover number (kcat) amounted to 1.35 ± 0.03 s⁻¹ and the kcat/Km amounted to 11000 ± 600 M⁻¹ s⁻¹.
On to TsRTA_G205C, for which the “percent tetramer (sample with a lower proportion of tetramer used for the thermostability assay)” value in [15] is given as “TsRTA_G205C: 75% tetramer”.
For TsRTA_G205C (enzyme), in data set [16], the percent dimer (after β-mercaptoethanol, dialysis and aeration) was found to be 11%; the percent dimer (immediately following purification) is 42%; the percent monomer (immediately following purification) came out at 2%; the percent tetramer (after β-mercaptoethanol, dialysis and aeration) came to 89%. Further, in data set [16], the percent tetramer (immediately following purification) amounted to 55% and the stoichiometry N amounted to 4.

B1: (R)-selective transaminase from Aspergillus terreus (AtRTA), wild type (enzyme)
chain: MASMDKVFAGYAARQAILESTETTNPFAKGIAWVEGELVPLAEARIPLLDQGFMHSDLTYDVPSVWDGRFFRLDDHITRLEASCTKLRLRLPLPRDQVKQILVEMVAKSGIRDAFVELIVTRGLKGVRGTRPEDIVNNLYMFVQPYVWVMEPDMQRVGGSAVVARTVRRVPPGAIDPTVKNLQWGDLVRGMFEAADRGATYPFLTDGDAHLTEGSGFNIVLVKDGVLYTPDRGVLQGVTRKSVINAAEAFGIEVRVEFVPVELAYRCDEIFMCTTAGGIMPITTLDGMPVNGGQIGPITKKIWDGYWAMHYDAAYSFEIDYNERN
notes: the forward primer holds the ATG; Same vector as TsRTA, whose His-tag is C-terminal; also called omega transaminase from Aspergillus terreus; source: E. coli BL21 STAR (DE3), purified (IMAC)
Take B1: the “stoichiometry N” value in data set [17] is 4.

The record behind these values is article PMC7387707, “An (R)-Selective Transaminase From Thermomyces stellatus: Stabilizing the Tetrameric Form” (Frontiers in Bioengineering and Biotechnology, 2020).
